Measured values: the supplement of paper PMC11246515
± gives the standard deviation of the averaged measurements.

Experiment: total protein half-life in vivo (active degradation + dilution); higher = more stable protein
[1] = E. coli NCM3722 delta-clpP delta-lon delta-hslV, growth: N-lim chemostat, doubling time 6 h
[2] = E. coli NCM3722 delta-clpP, growth: N-lim chemostat, doubling time 6 h
[3] = E. coli NCM3722 delta-hslV, growth: N-lim chemostat, doubling time 6 h
[4] = E. coli NCM3722 delta-lon, growth: N-lim chemostat, doubling time 6 h
[5] = E. coli NCM3722 delta-smpB, growth: N-lim chemostat, doubling time 6 h
[6] = wild type E. coli NCM3722, growth: C-lim chemostat, doubling time 3 h
[7] = wild type E. coli NCM3722, growth: C-lim chemostat, doubling time 6 h
[8] = wild type E. coli NCM3722, growth: C-lim chemostat, doubling time 12 h
[9] = wild type E. coli NCM3722, growth: N-lim chemostat, doubling time 6 h
[10] = wild type E. coli NCM3722, growth: N-lim chemostat, doubling time 12 h
[11] = wild type E. coli NCM3722, growth: P-lim chemostat, doubling time 6 h
[12] = wild type E. coli NCM3722, growth: P-lim chemostat, doubling time 12 h

Sequence	total protein half-life in vivo [1] [h]	total protein half-life in vivo [2] [h]	total protein half-life in vivo [3] [h]	total protein half-life in vivo [4] [h]	total protein half-life in vivo [5] [h]	total protein half-life in vivo [6] [h]	total protein half-life in vivo [7] [h]	total protein half-life in vivo [8] [h]	total protein half-life in vivo [9] [h]	total protein half-life in vivo [10] [h]	total protein half-life in vivo [11] [h]	total protein half-life in vivo [12] [h]
MRLDKFIAQQLGVSRAIAGREIRGNRVTVDGEIVRNAAFKLLPEHDVAYDGNPLAQQHGPRYFMLNKPQGYVCSTDDPDHPTVLYFLDEPVAWKLHAAGRLDIDTTGLVLMTDDGQWSHRITSPRHHCEKTYLVTLESPVADDTAEQFAKGVQLHNEKDLTKPAVLEVITPTQVRLTISEGRYHQVKRMFAAVGNHVVELHRERIGGITLDADLAPGEYRPLTEEEIASVV [P0AA43]	5.25 ± 0.067	4.76 ± 0.54	3.68 ± 0.064	4.65 ± 0.39	3.78 ± 0.066	3 ± 0.1	4.74 ± 0.18	8.66 ± 0.55	3.57 ± 0.14	6.08 ± 0.51	4 ± 0.33	7.21 ± 0.22
MRLFAQLSWYFRREWRRYLGAVALLVIIAMLQLVPPKVVGIVVDGVTEQHFTTGQILMWIATMVLIAVVVYLLRYVWRVLLFGASYQLAVELREDYYRQLSRQHPEFYLRHRTGDLMARATNDVDRVVFAAGEGVLTLVDSLVMGCAVLIMMSTQISWQLTLFSLLPMPVMAIMIKRNGDALHERFKLAQAAFSSLNDRTQESLTSIRMIKAFGLEDRQSALFAADAEDTGKKNMRVARIDARFDPTIYIAIGMANLLAIGGGSWMVVQGSLTLGQLTSFMMYLGLMIWPMLALAWMFNIVERGSAAYSRIRAMLAEAPVVNDGSEPVPEGRGELDVNIHQFTYPQTDHPALENVNFALKPGQMLGICGPTGSGKSTLLSLIQRHFDVSEGDIRFHDIPLTKLQLDSWRSRLAVVSQTPFLFSDTVANNIALGCPNATQQEIEHVARLASVHDDILRLPQGYDTEVGERGVMLSGGQKQRISIARALLVNAEILILDDALSAVDGRTEHQILHNLRQWGQGRTVIISAHRLSALTEASEIIVMQHGHIAQRGNHDVLAQQSGWYRDMYRYQQLEAALDDAPENREEAVDA	6.33 ± 0.2	6.624 ± 0.017	5.58 ± 1.5	4.42 ± 0.37	4.26 ± 0.096	–	4.99 ± 0.061	11.1 ± 1.6	4.77 ± 0.67	7.121 ± 0.033	6.08 ± 0.52	11.6 ± 3.3
MRLGTFHKKKRFYINKIKINFLSFLFRNKINNQITDPAQVKSCLIIHDNNKLGDLIVLSSIYRELYSKGVKITLLTNRKGGEFLSNNKNIFEFCIKESTGFLEMLTLCKHLRDLQFDIVLDPFETMPSFKHSLILSSLKDSYILGFDHWYKRYYSFYHPHDECLKEHMSTRAIEILKHIYGEGKFSTNYDLHLPVDVEDKIKEFIGDTRIVIINPLGAKKICRLTFEQIKVIYQEVKTHFENYRIIFTGLPQDLLTIPILEIETLPFDEFIYTVALTKYSDFVISVDTALVHIAAAYHKPTLAFYPNSRTPEYPSHLIWSPNHHKSIQIVSPTYTVKDIDTETLTNSVKRLSCIDKK	5.5 ± 0.61	6.56 ± 1.5	5.9 ± 0.57	–	5.44 ± 0.1	2.96 ± 0.088	–	11.5 ± 0.51	5.67 ± 0.47	12.8 ± 1.3	5.23 ± 0.19	12.2 ± 0.22
MRLIITFLMAWCLSWGAYAATAPDSKQITQELEQAKAAKPAQPEVVEALQSALNALEERKGSLERIKQYQQVIDNYPKLSATLRAQLNNMRDEPRSVSPGMSTDALNQEILQVSSQLLDKSRQAQQEQERAREIADSLNQLPQQQTDARRQLNEIERRLGTLTGNTPLNQAQNFALQSDSARLKALVDELELAQLSANNRQELARLRSELAEKESQQLDAYLQALRNQLNSQRQLEAERALESTELLAENSADLPKDIVAQFKINRELSAALNQQAQRMDLVASQQRQAASQTLQVRQALNTLREQSQWLGSSNLLGEALRAQVARLPEMPKPQQLDTEMAQLRVQRLRYEDLLNKQPLLRQIHQADGQPLTAEQNRILEAQLRTQRELLNSLLQGGDTLLLELTKLKVSNGQLEDALKEVNEATHRYLFWTSDVRPMTIAWPLEIAQDLRRLISLDTFSQLGKASVMMLTSKETILPLFGALILVGCSIYSRRYFTRFLERSAAKVGKVTQDHFWLTLRTLFWSILVASPLPVLWMTLGYGLREAWPYPLAVAIGDGVTATVPLLWVVMICATFARPNGLFIAHFGWPRERVSRGMRYYLMSIGLIVPLIMALMMFDNLDDREFSGSLGRLCFILICGALAVVTLSLKKAGIPLYLNKEGSGDNITNHMLWNMMIGAPLVAILASAVGYLATAQALLARLETSVAIWFLLLVVYHVIRRWMLIQRRRLAFDRAKHRRAEMLAQRARGEEEAHHHSSPEGAIEVDESEVDLDAISAQSLRLVRSILMLIALLSVIVLWSEIHSAFGFLENISLWDVTSTVQGVESLEPITLGAVLIAILVFIITTQLVRNLPALLELAILQHLDLTPGTGYAITTITKYLLMLIGGLVGFSMIGIEWSKLQWLVAALGVGLGFGLQEIFANFISGLIILFEKPIRIGDTVTIRDLTGSVTKINTRATTISDWDRKEIIVPNKAFITEQFINWSLSDSVTRVVLTIPAPADANSEEVTEILLTAARRCSLVIDNPAPEVFLVDLQQGIQIFELRIYAAEMGHRMPLRHEIHQLILAGFHAHGIDMPFPPFQMRLESLNGKQTGRTLTSAGKGRQAGSL	6.45 ± 0.14	6.87 ± 1.2	6.3 ± 0.62	6.27 ± 0.29	5.67 ± 0.52	3.35 ± 0.12	6.73 ± 0.79	13.1 ± 1.4	6.49 ± 0.46	13.3 ± 2.1	5.95 ± 0.7	12.8 ± 0.24
MRLTSKGRYAVTAMLDVALNSEAGPVPLADISERQGISLSYLEQLFSRLRKNGLVSSVRGPGGGYLLGKDASSIAVGEVISAVDESVDATRCQGKGGCQGGDKCLTHALWRDLSDRLTGFLNNITLGELVNNQEVLDVSGRQHTHDAPRTRTQDAIDVKLRA [P0AGK8]	5.43 ± 0.76	2.85 ± 0.1	1.38 ± 0.36	1.43 ± 0.34	1.04 ± 0.058	1.22 ± 0.076	1.76 ± 0.058	2.04 ± 0.57	1.057 ± 0.0037	1.37 ± 0.1	1.53 ± 0.5	2.18 ± 0.6
MRMNMSDFATFFAVARNQSFRAAGDELGLSSSAISHSIKTLEQRLKIRLFNRTTRSVSLTEAGSNLYERLRPAFDEIQIMLDEMNDFRLTPTGTLKINAARVAARIFLMSLLVGFTREYPDIKVELTTDDSLVDIVQQGFDAGVRLSCIVEKDMISVAIGPPVKLCVAATPEYFARYGKPRHPHDLLNHQCVVFRYPSGKPFHWQFAKELEIAVAGNIILDDVDAELEAVLMGAGIGYLLYEQIKEYLDTGRLECVLEDWSTERPGFQIYYPNRQYMSCGLRAFLDYVKTGQICQSQRHRPQ	5.54 ± 0.06	–	–	–	–	–	–	–	–	–	–	–
MRQKETTATTRFSLLPGSITRFFLLLIIVLLVTMGVMVQSAVNAWLKDKSYQIVDITHAIQKRVDNWRYVTWQIYDNIAATTSPSSGEGLQETRLKQDVYYLEKPRRKTEALIFGSHDNSTLEMTQRMSTYLDTLWGAENVPWSMYYLNGQDNSLVLISTLPLKDLTSGFKESTVSDIVDSRRAEMLQQANALDERESFSNMRRLAWQNGHYFTLRTTFNQPGHLATVVAFDLPINDLIPPGMPLDSFRLEPDATATGNNDNEKEGTDSVSIHFNSTKIEISSALNSTDMRLVWQVPYGTLLLDTLQNILLPLLLNIGLLALALFGYTTFRHFSSRSTENVPSTAVNNELRILRAINEEIVSLLPLGLLVHDQESNRTVISNKIADHLLPHLNLQNITTMAEQHQGIIQATINNELYEIRMFRSQVAPRTQIFIIRDQDREVLVNKKLKQAQRLYEKNQQGRMIFMKNIGDALKEPAQSLAESAAKLNAPESKQLANQADVLVRLVDEIQLANMLADDSWKSETVLFSVQDLIDEVVPSVLPAIKRKGLQLLINNHLKAHDMRRGDRDALRRILLLLMQYAVTSTQLGKITLEVDQDESSEDRLTFRILDTGEGVSIHEMDNLHFPFINQTQNDRYGKADPLAFWLSDQLARKLGGHLNIKTRDGLGTRYSVHIKMLAADPEVEEEEERLLDDVCVMVDVTSAEIRNIVTRQLENWGATCITPDERLISQDYDIFLTDNPSNLTASGLLLSDDESGVREIGPGQLCVNFNMSNAMQEAVLQLIEVQLAQEEVTESPLGGDENAQLHASGYYALFVDTVPDDVKRLYTEAATSDFAALAQTAHRLKGVFAMLNLVPGKQLCETLEHLIREKDVPGIEKYISDIDSYVKSLL	6.226 ± 0.058	–	6.72 ± 0.27	6.86 ± 0.49	6.32 ± 0.7	3.25 ± 0.077	6.3 ± 0.57	11.13 ± 0.09	6.21 ± 0.15	12.6 ± 0.92	7 ± 0.88	12.9 ± 0.27
MRQVLSSLLVIAGLVSGQAIAAPESPPHADIRDSGFVYCVSGQVNTFNPSKASSGLIVDTLAAQFYDRLLDVDPYTYRLMPELAESWEVLDNGATYRFHLRRDVPFQKTDWFTPTRKMNADDVVFTFQRIFDRNNPWHNVNGSNFPYFDSLQFADNVKSVRKLDNHTVEFRLAQPDASFLWHLATHYASVMSAEYARKLEKEDRQEQLDRQPVGTGPYQLSEYRAGQFIRLQRHDDFWRGKPLMPQVVVDLGSGGTGRLSKLLTGECDVLAWPAASQLSILRDDPRLRLTLRPGMNVAYLAFNTAKPPLNNPAVRHALALAINNQRLMQSIYYGTAETAASILPRASWAYDNEAKITEYNPAKSREQLKSLGLENLTLKLWVPTRSQAWNPSPLKTAELIQADMAQVGVKVVIVPVEGRFQEARLMDMSHDLTLSGWATDSNDPDSFFRPLLSCAAIHSQTNLAHWCDPKFDSVLRKALSSQQLAARIEAYDEAQSILAQELPILPLASSLRLQAYRYDIKGLVLSPFGNASFAGVYREKQDEVKKP	–	–	6.48 ± 0.7	6.22 ± 0.64	5.939 ± 0.032	3.129 ± 0.013	5.88 ± 0.23	11.05 ± 0.028	6.39 ± 0.57	13.5 ± 0.91	6.18 ± 0.2	12 ± 1.2
MRRLLSVAPVLLWLITPLAFAQLPGITSQPLPGGGQSWSLPVQTLVFITSLTFIPAILLMMTSFTRIIIVFGLLRNALGTPSAPPNQVLLGLALFLTFFIMSPVIDKIYVDAYQPFSEEKISMQEALEKGAQPLREFMLRQTREADLGLFARLANTGPLQGPEAVPMRILLPAYVTSELKTAFQIGFTIFIPFLIIDLVIASVLMALGMMMVPPATIALPFKLMLFVLVDGWQLLVGSLAQSFYS [P0AC05]	–	–	–	–	–	2.76	6.05	9.42	–	–	–	–
MRRLRFSPRSSFARTLLLIVTLLFASLVTTYLVVLNFAILPSLQQFNKVLAYEVRMLMTDKLQLEDGTQLVVPPAFRREIYRELGISLYSNEAAEEAGLRWAQHYEFLSHQMAQQLGGPTEVRVEVNKSSPVVWLKTWLSPNIWVRVPLTEIHQGDFSPLFRYTLAIMLLAIGGAWLFIRIQNRPLVDLEHAALQVGKGIIPPPLREYGASEVRSVTRAFNHMAAGVKQLADDRTLLMAGVSHDLRTPLTRIRLATEMMSEQDGYLAESINKDIEECNAIIEQFIDYLRTGQEMPMEMADLNAVLGEVIAAESGYEREIETALYPGSIEVKMHPLSIKRAVANMVVNAARYGNGWIKVSSGTEPNRAWFQVEDDGPGIAPEQRKHLFQPFVRGDSARTISGTGLGLAIVQRIVDNHNGMLELGTSERGGLSIRAWLPVPVTRAQGTTKEG [P0AEJ4]	6.372 ± 0.049	7.33 ± 0.82	6.19 ± 0.26	6.19 ± 0.32	6.14 ± 0.39	3.2 ± 0.14	6.16 ± 0.14	–	6.35 ± 0.27	13.1 ± 0.43	6.87 ± 0.93	14.12 ± 0.043
MRRTFIKKEGVVITTLARYLLGEKCGNRLKTIDELANECRSSVGLTQAALKTLESSGAIRIERRGRNGSYLVEMDNKALLTHVDINNVVCAMPLPYTRLYEGLASGLKAQFDGIPFYYAHMRGADIRVECLLNGVYDMAVVSRLAAESYLTQKGLCLALELGPHTYVGEHQLICRKGESANVKRVGLDNRSADQKIMTDVFFGGSDVERVDLSYHESLQRIVKGDVDAVIWNVVAENELTMLGLEATPLTDDPRFLQATEAVVLTRVDDYPMQQLLRAVVDKHALLAHQQRVVSGEQEPSY	6.2 ± 0.085	5.94 ± 0.07	5.34 ± 0.15	5.75 ± 0.52	4.78 ± 0.41	2.78 ± 0.093	5.3 ± 0.1	7.63 ± 2.6	4.68 ± 0.65	9.45 ± 0.82	5.166 ± 0.0084	9.42 ± 0.63
